B1: Zinc finger homeobox protein 3, residues 2147 to 2202; numbered along this chain, Q15911 (parent)
chain: RPRTRITDDQLRVLRQYFDINNSPSEEQIKEMADKSGLPQKVIKHWFRNTLFKERQ

± gives the uncertainty stated by the source.

Variants of B1 are the subject of this series. Description: abundance fitness (aPCA) (normalised: wild type 0, dead -1); higher = more abundant; growth selection in yeast, the domain comes from the species named. To be noted: Homo sapiens.
Regarding RPRTRITDDQLRVLRQYFDINNSPSEEQIKEMADKSYLPQKVIKHWFRNTLFKERQ, the abundance fitness is -0.424 ± 0.15. The figure for RPRTRITDDQLRVLRQYFDINNSPSEEQIKEMADKSQLPQKVIKHWFRNTLFKERQ is -0.245 ± 0.1; for RPRTRITDDQLRVLRQYFDINNSPSEEQIKEMADKSILPQKVIKHWFRNTLFKERQ it is -0.762 ± 0.26.

Consider RPRTRITDDQLRVLRQYFDINNSPSEEQIKEMADKSHLPQKVIKHWFRNTLFKERQ, for which the abundance fitness is -0.361 ± 0.16. The figure for RPRTRITDDQLRVLRQYFDINNSPSEEQIKEMADKSLLPQKVIKHWFRNTLFKERQ is -0.278 ± 0.088. On to RPRTRITDDQLRVLRQYFDINNSPSEEQIKEMADKSTLPQKVIKHWFRNTLFKERQ, for which the abundance fitness is -0.342 ± 0.11.

With RPRTRITDDQLRVLRQYFDINNSPSEEQIKEMADKSRLPQKVIKHWFRNTLFKERQ, the abundance fitness is -0.071 ± 0.077. Regarding RPRTRITDDQLRVLRQYFDINNSPSEEQIKEMADKSMLPQKVIKHWFRNTLFKERQ, the abundance fitness is -0.341 ± 0.12. Under RPRTRITDDQLRVLRQYFDINNSPSEEQIKEMADKSDLPQKVIKHWFRNTLFKERQ stands -0.103 ± 0.1. With RPRTRITDDQLRVLRQYFDINNSPSEEQIKEMADKSELPQKVIKHWFRNTLFKERQ, the abundance fitness is -0.155 ± 0.11. The figure for RPRTRITDDQLRVLRQYFDINNSPSEEQIKEMADKSNLPQKVIKHWFRNTLFKERQ is -0.124 ± 0.16; for RPRTRITDDQLRVLRQYFDINNSPSEEQIKEMADKSWLPQKVIKHWFRNTLFKERQ it is -0.535 ± 0.1; for RPRTRITDDQLRVLRQYFDINNSPSEEQIKEMADKSALPQKVIKHWFRNTLFKERQ it is -0.176 ± 0.11. Under RPRTRITDDQLRVLRQYFDINNSPSEEQIKEMADKSVLPQKVIKHWFRNTLFKERQ stands -0.427 ± 0.082; under RPRTRITDDQLRVLRQYFDINNSPSEEQIKEMADKSFLPQKVIKHWFRNTLFKERQ, -0.504 ± 0.15.

Regarding RPRTRITDDQLRVLRQYFDINNSPSEEQIKEMADKSSLPQKVIKHWFRNTLFKERQ, the abundance fitness was -0.151 ± 0.087. Under RPRTRITDDQLRVLRQYFDINNSPSEEQIKEMADKSCLPQKVIKHWFRNTLFKERQ stands -0.037 ± 0.13.

As to RPRTRITDDQLRVLRQYFDINNSPSEEQIKEMADKSKLPQKVIKHWFRNTLFKERQ, the abundance fitness was -0.048 ± 0.11. Under RPRTRITDDQLRVLRQYFDINNSPSEEQIKEMADKYGLPQKVIKHWFRNTLFKERQ stands -0.178 ± 0.12. The figure for RPRTRITDDQLRVLRQYFDINNSPSEEQIKEMADKMGLPQKVIKHWFRNTLFKERQ is -0.157 ± 0.093; for RPRTRITDDQLRVLRQYFDINNSPSEEQIKEMADKTGLPQKVIKHWFRNTLFKERQ it is 0.127 ± 0.079. Under RPRTRITDDQLRVLRQYFDINNSPSEEQIKEMADKGGLPQKVIKHWFRNTLFKERQ stands -0.449 ± 0.08; under RPRTRITDDQLRVLRQYFDINNSPSEEQIKEMADKNGLPQKVIKHWFRNTLFKERQ, 0.018 ± 0.15. As for RPRTRITDDQLRVLRQYFDINNSPSEEQIKEMADKRGLPQKVIKHWFRNTLFKERQ, the abundance fitness is -0.828 ± 0.077.

As for RPRTRITDDQLRVLRQYFDINNSPSEEQIKEMADKPGLPQKVIKHWFRNTLFKERQ, the abundance fitness was -0.853 ± 0.1. On to RPRTRITDDQLRVLRQYFDINNSPSEEQIKEMADKKGLPQKVIKHWFRNTLFKERQ, for which the abundance fitness is -0.706 ± 0.12. The figure for RPRTRITDDQLRVLRQYFDINNSPSEEQIKEMADKIGLPQKVIKHWFRNTLFKERQ is 0.078 ± 0.12. Regarding RPRTRITDDQLRVLRQYFDINNSPSEEQIKEMADKLGLPQKVIKHWFRNTLFKERQ, the abundance fitness was found to be 0.019 ± 0.073. The figure for RPRTRITDDQLRVLRQYFDINNSPSEEQIKEMADKWGLPQKVIKHWFRNTLFKERQ is -0.182 ± 0.084. Turning to RPRTRITDDQLRVLRQYFDINNSPSEEQIKEMADKVGLPQKVIKHWFRNTLFKERQ, the abundance fitness is -0.031 ± 0.085. Under RPRTRITDDQLRVLRQYFDINNSPSEEQIKEMADKHGLPQKVIKHWFRNTLFKERQ stands -0.057 ± 0.12. The figure for RPRTRITDDQLRVLRQYFDINNSPSEEQIKEMADKSGLQQKVIKHWFRNTLFKERQ is -0.167 ± 0.11. Take RPRTRITDDQLRVLRQYFDINNSPSEEQIKEMADKSGLCQKVIKHWFRNTLFKERQ: the abundance fitness was -0.192 ± 0.15.

For RPRTRITDDQLRVLRQYFDINNSPSEEQIKEMADKSGLEQKVIKHWFRNTLFKERQ, the abundance fitness came out at 0.009 ± 0.082. The figure for RPRTRITDDQLRVLRQYFDINNSPSEEQIKEMADKSGLFQKVIKHWFRNTLFKERQ is -0.746 ± 0.22.

As for RPRTRITDDQLRVLRQYFDINNSPSEEQIKEMADKSGLAQKVIKHWFRNTLFKERQ, the abundance fitness was -0.068 ± 0.078. Take RPRTRITDDQLRVLRQYFDINNSPSEEQIKEMADKSGLLQKVIKHWFRNTLFKERQ: the abundance fitness was -0.329 ± 0.078. As for RPRTRITDDQLRVLRQYFDINNSPSEEQIKEMADKSGLTQKVIKHWFRNTLFKERQ, the abundance fitness is -0.031 ± 0.099. The figure for RPRTRITDDQLRVLRQYFDINNSPSEEQIKEMADKSGLIQKVIKHWFRNTLFKERQ is -0.199 ± 0.16; for RPRTRITDDQLRVLRQYFDINNSPSEEQIKEMADKSGLWQKVIKHWFRNTLFKERQ it is -0.564 ± 0.1. Under RPRTRITDDQLRVLRQYFDINNSPSEEQIKEMADKSGLVQKVIKHWFRNTLFKERQ stands -0.119 ± 0.079; under RPRTRITDDQLRVLRQYFDINNSPSEEQIKEMADKSGLDQKVIKHWFRNTLFKERQ, -0.015 ± 0.14; under RPRTRITDDQLRVLRQYFDINNSPSEEQIKEMADKSGLGQKVIKHWFRNTLFKERQ, -0.016 ± 0.068. Under RPRTRITDDQLRVLRQYFDINNSPSEEQIKEMADKSGLYQKVIKHWFRNTLFKERQ stands -0.284 ± 0.34.

As to RPRTRITDDQLRVLRQYFDINNSPSEEQIKEMADKSGLMQKVIKHWFRNTLFKERQ, the abundance fitness was -0.258 ± 0.097. On to RPRTRITDDQLRVLRQYFDINNSPSEEQIKEMADKSGLNQKVIKHWFRNTLFKERQ, for which the abundance fitness is -0.249 ± 0.22. On to RPRTRITDDQLRVLRQYFDINNSPSEEQIKEMADKSGLSQKVIKHWFRNTLFKERQ, for which the abundance fitness was found to be 0.045 ± 0.08.

The values are drawn from the Human Domainome abundance scans (Beltran et al. 2025).
